9 molecules from patent US20190307836A1 (Bicycle, published 2019) can be followed below.

Starred links: 1 amine or outer side, 2 acyl side, 3 side chain; linkers in the order of their positions; H or OH if unused. Positions of bridges follow the written chain, without caps; N, C: chain ends. Non-standard residues stand in square brackets, D forms with d. Chains are numbered I, II in the order given. No end group written: not given here. *: point of attachment. TATA = O=C(CC[*:1])N1CN(C(=O)CC[*:2])CN(C(=O)CC[*:3])C1; Dap(PYA) = diaminopropionic acid bearing 4-pentynoyl; 1Nal = N[C@@H](Cc1cccc2ccccc12)C(=O)O; Hyp = O=C(O)[C@@H]1C[C@@H](O)CN1; hArg = N=C(N)NCCCC[C@H](N)C(=O)O; tBuAla = CC(C)(C)C[C@H](N)C(=O)O; Nle = CCCC[C@H](N)C(=O)O; Pent4ynoyl = C#CCCC(=O)*; Dap = NC[C@H](N)C(=O)O; βAla = NCCC(=O)O; Sar = CNCC(=O)O Some results are limits rather than exact numbers.

The labels stand for the following.
B1: heterotandem bicyclic peptide complex BCY10572 (peptide)
peptide 1: CP[1Nal][dD]CM[hArg]DWSTP[Hyp]WC
peptide 2: Ac-C[tBuAla]PE[dK](Pent4ynoyl)PYCFADPY[Nle]CA
modifications: linker I:1-I:5-I:15, II:1-II:8-II:15 via TATA; not fully specified (C-terminus, bridges); also: chains joined by PEG5 linker on chain 1 N-terminus, triazole to D-Lys(PYA)
B2: heterotandem bicyclic peptide complex BCY10000 (peptide)
peptide 1: {Pent4ynoyl-βAla}-[Sar][Sar][Sar][Sar][Sar][Sar][Sar][Sar][Sar][Sar]CP[1Nal][dD]CM[hArg]DWSTP[Hyp]WC
peptide 2: Ac-C[tBuAla]PE[dA]PYCFADPY[Nle]C[Dap]
modifications: linker I:11-I:15-I:25, II:1-II:8-II:15 via TATA; not fully specified (C-terminus); numbers in words are those of the source; also: linker to a chain's N/C-terminus via PEG12
B3: heterotandem bicyclic peptide complex BCY10571 (peptide)
peptide 1: CP[1Nal][dD]CM[hArg]DWSTP[Hyp]WC
peptide 2: Ac-C[tBuAla]PK(Pent4ynoyl)[dA]PYCFADPY[Nle]CA
modifications: linker I:1-I:5-I:15, II:1-II:8-II:15 via TATA; not fully specified (C-terminus, bridges); also: chains joined by PEG5 linker on chain 1 N-terminus, triazole to K(PYA)
B4: heterotandem bicyclic peptide complex BCY8854 (peptide)
peptide 1: CPXDCMXDWSTPXWC
peptide 2: ACIEEGQYCFADPYXC
modifications: BCY7732: N-terminal acetyl; Nle12; C-terminal Dap (diaminopropionic acid) bearing the linker; Ci, Cii, Ciii on TATA scaffold; BCY8846: N-terminal [PYA]-[B-Ala]-[Sar10]- (linker on PYA); 1Nal2, dD3, HArg5, HyP11; Ci, Cii, Ciii on TATA scaffold
B5: heterotandem bicyclic peptide complex BCY9350 (peptide)
peptide 1: CPXDCMXDWSTPXWC
peptide 2: ACIEEGQYCFADPYXC
modifications: BCY7732: N-terminal acetyl; Nle12; C-terminal Dap (diaminopropionic acid) bearing the linker; Ci, Cii, Ciii on TATA scaffold; BCY11942: N-terminal [PYA]-[B-Ala]-[Sar10]- (linker on PYA); 1Nal2, dD3, HArg5, dW7, HyP11, dW12; Ci, Cii, Ciii on TATA scaffold
B6: heterotandem bicyclic peptide complex BCY9351 (peptide)
peptide 1: CPXDCMXDWSTPXWC
peptide 2: ACIEEGQYCFADPYXC
modifications: BCY8045: N-terminal acetyl; D-Ala8, Nle12; C-terminal Dap (diaminopropionic acid) bearing the linker; Ci, Cii, Ciii on TATA scaffold; BCY8846: N-terminal [PYA]-[B-Ala]-[Sar10]- (linker on PYA); 1Nal2, dD3, HArg5, HyP11; Ci, Cii, Ciii on TATA scaffold
B7: heterotandem bicyclic peptide complex BCY8943 (peptide)
peptide 1: VGPCLWDPTPCANLHLXC
peptide 2: ACIEEGQYCFADPYXC
modifications: BCY7732: N-terminal acetyl; Nle12; C-terminal Dap (diaminopropionic acid) bearing the linker; Ci, Cii, Ciii on TATA scaffold; BCY8941: N-terminal [PYA]-[B-Ala]-[Sar10]- (linker on PYA); HArg12; Ci, Cii, Ciii on TATA scaffold
B8: heterotandem bicyclic peptide complex BCY9759 (peptide)
peptide 1: CPXDCMXDWSTPXWC
peptide 2: ACIEEGQYCFADPYXC
modifications: BCY7732: N-terminal acetyl; Nle12; C-terminal Dap (diaminopropionic acid) bearing the linker; Ci, Cii, Ciii on TATA scaffold; BCY8116: linker on N-terminus; 1Nal2, dD3, HArg5, HyP11; Ci, Cii, Ciii on TATA scaffold
B9: heterotandem bicyclic peptide complex BCY10573 (peptide)
peptide 1: CP[1Nal][dD]CM[hArg]DWSTP[Hyp]WC
peptide 2: Ac-C[tBuAla]PE[dA]PYCFADPY[Nle]C-{Dap(PYA)}
modifications: linker I:1-I:5-I:15, II:1-II:8-II:15 via TATA; not fully specified (C-terminus); also: linker to a chain's N/C-terminus via PEG5

CD137 expressed on cells (CHO cells expressing CD137); Jurkat cells of the Promega CD137 luciferase reporter …, sequence (Q07011 24-255 limits assumed): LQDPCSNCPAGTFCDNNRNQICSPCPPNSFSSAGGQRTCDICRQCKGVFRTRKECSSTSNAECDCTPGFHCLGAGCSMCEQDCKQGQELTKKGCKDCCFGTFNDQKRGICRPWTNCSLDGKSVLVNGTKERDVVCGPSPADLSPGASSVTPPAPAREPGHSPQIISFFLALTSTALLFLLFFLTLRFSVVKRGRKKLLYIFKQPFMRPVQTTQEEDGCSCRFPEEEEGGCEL
CD137 expressed on cells (CHO cells expressing CD137; Jurkat cells of the Promega CD137 luciferase reporter assay), sequence (Q07011 24-255 limits assumed): as above

In one test the target is CD137 on human PBMC (anti-CD3 stimulated) (human, UniProt Q07011 24-255). As to the kind of experiment: cell-based or functional assay.
CD137 on human PBMC (anti-CD3 stimulated), sequence (Q07011 24-255): as the sequence (Q07011 24-255 limits assumed) above
Consider B1, for which the “EC50 (nM), IFN-γ secretion, human PBMC co-culture with 4T1-D02(Nectin4+)” value (“EC50 (nM), IFN-γ secretion” for short) was 0.25 nM and the “max IFN-γ (pg/ml), human PBMC co-culture with 4T1-D02(Nectin4+)” value (“max IFN-γ (pg/ml), human PBMC co-culture” below) turned out to be 17900 pg/mL.

Turning to B2, the “EC50 (nM), IFN-γ secretion” value amounted to 0.21 nM and the “max IFN-γ (pg/ml), human PBMC co-culture” value is 19600 pg/mL.

With B3, the “EC50 (nM), IFN-γ secretion” value was found to be 0.44 nM and the “max IFN-γ (pg/ml), human PBMC co-culture” value stood at 18300 pg/mL.

Regarding B4, the “EC50 (nM), IFN-γ secretion” value was found to be 0.89 nM and the “max IFN-γ (pg/ml), human PBMC co-culture” value came to 16000 pg/mL.

A further test addresses CD137 expressed on cells (CHO cells expressing CD137; Jurkat cells of the Promega CD137 luciferase reporter assay) (UniProt Q07011). As to the kind of experiment: cell-based or functional assay.
In turn, B5 displayed a Fold Induction over Background, CD137 reporter assay, co-culture with H1376 (Nectin4) of under 2 fold.

Turning to B6, the Fold Induction over Background, CD137 reporter assay, co-culture with H1376 (Nectin4) was under 2 fold.

A further test concerns the target CD137 expressed on cells (CHO cells expressing CD137); Jurkat cells of the Promega CD137 luciferase reporter … (UniProt Q07011 24-255, limits assumed). In words: cell-based or functional assay.
Consider B7, for which the “Fold Induction over Background, CD137 reporter assay, co-culture with PC3 (EphA2)” value was under 2 fold.

Take B2: the “EC50 (nM), CD137 reporter assay, co-culture with H1376 (Nectin4)” value (from here on “EC50 (nM), CD137 reporter assay”) came to 0.58 nM.

Regarding B8, the “EC50 (nM), CD137 reporter assay” value was found to be 2.7 nM.

B4: the “EC50 (nM), CD137 reporter assay” value came out at 1.2 nM.

The target in a further test is T1, Human Nectin-4 (residues Gly32-Ser349; NCBI RefSeq: NP_112178.2) with C-terminal FLAG tag (human, UniProt Q96NY8 32-349, randomly biotinylated with EZ-Link Sulfo-NHS-LC-LC-Biotin).
T1 construct: range 32-349; also called human Nectin-4 protein; not shown: C-terminal FLAG tag
T1 sequence (looked up): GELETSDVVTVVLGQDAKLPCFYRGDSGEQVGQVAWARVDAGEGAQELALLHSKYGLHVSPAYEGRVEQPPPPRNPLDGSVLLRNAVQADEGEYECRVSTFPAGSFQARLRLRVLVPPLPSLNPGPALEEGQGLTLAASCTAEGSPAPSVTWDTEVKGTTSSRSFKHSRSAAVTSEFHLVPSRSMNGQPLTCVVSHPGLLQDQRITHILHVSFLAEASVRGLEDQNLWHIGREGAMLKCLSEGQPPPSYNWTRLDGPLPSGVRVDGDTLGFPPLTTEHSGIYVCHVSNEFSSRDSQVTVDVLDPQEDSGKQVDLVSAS
In words: SPR (Biacore 3000), biotinylated human Nectin-4 on streptavidin chip. As to the method: Streptavidin was immobilized on the chip using standard amine-coupling chemistry at 25° C. with HBS-N (10 mM HEPES, 0.15 M NaCl, pH 7.4) as the running buffer. […] Buffer was changed to PBS/0.05% Tween 20 and a dilution series of the peptides was prepared in this buffer with a final DMSO concentration of 0.5%. […] Data were corrected for DMSO excluded volume effects. All data were double-referenced for blank injections and reference surface using standard processing procedures and data processing and kinetic fitting were performed using Scrubber software, version 2.0c (BioLogic Software). Data were fitted using simple 1:1 binding model allowing for mass transport effects where appropriate.
In general terms: SPR reads the build-up and loss of mass on a sensor chip optically.
Usually Kd stands for the free concentration of one partner at which half of the binding sites on the other are occupied at equilibrium, for simple one-to-one binding. The molecule B2 displayed a Kd of 2.26 nM.

With B8, binding was characterised by a dissociation constant (Kd) of 2.14 nM.

The molecule B6 showed a Kd of 2.47 nM.

On to B4, for which binding was characterised by a dissociation constant (Kd) of 2.76 nM.

The next test addresses T2, Recombinant human CD137 (R&D systems) (human, UniProt Q07011 24-186, biotinylated with EZ-Link Sulfo-NHS-LC-LC-Biotin).
T2 construct: Bought protein; also called human CD137 protein; TNFRSF9
In words: SPR (Biacore), biotinylated human CD137 on streptavidin chip. As for the experimental part: The protein was desalted to remove uncoupled biotin using spin columns into PBS.
For analysis of peptide binding, a Biacore T200 or a Biacore 3000 instrument was used with a XanTec CMD500D chip. Streptavidin was immobilized on the chip using standard amine-coupling chemistry at 25° C. with HBS-N (10 mM HEPES, 0.15 M NaCl, pH 7.4) as the running buffer. Briefly, the carboxymethyl dextran surface was activated with a 7 min injection of a 1:1 ratio of 0.4 M 1-ethyl-3-(3-dimethylaminopropyl) carbodiimide hydrochloride (EDC)/0.1 M N-hydroxy succinimide (NHS) at a flow rate of 10 μl/min. For capture of streptavidin, the protein was diluted to 0.2 mg/ml in 10 mM sodium acetate (pH 4.5) and captured by injecting 120 μl of onto the activated chip surface. Residual activated groups were blocked with a 7 min injection of 1 M ethanolamine (pH 8.5) and biotinylated CD137 captured to a level of 270-1500 RU. Buffer was changed to PBS/0.05% Tween 20 and a dilution series of the peptides was prepared in this buffer with a final DMSO concentration of 0.5%. The top peptide concentration was 500 nM with 6 further 2-fold or 3-fold dilutions. The SPR analysis was run at 25° C. at a flow rate of 90 μl/min with 60 seconds association and 900 seconds dissociation. After each cycle a regeneration step (10 μl of 10 mM glycine pH 2) was employed. Data were corrected for DMSO excluded volume effects as needed. All data were double-referenced for blank injections and reference surface using standard processing procedures and data processing and kinetic fitting were performed using Scrubber software, version 2.0c (BioLogic Software). Data were fitted using simple 1:1 binding model allowing for mass transport effects where appropriate.
Regarding B7, the Kd worked out at 156 nM.

Turning to B5, the Kd is 69.4 nM.

With B1, the dissociation constant Kd was found to be 5 nM.

For B2, the Kd worked out at 6.19 nM.

With B3, the Kd was 12 nM.

Take B8: the Kd is 44.3 nM.

For B6, the Kd was 3640 nM.

B9: the Kd came to 3.39 nM.

In the case of B4, the Kd was 108 nM.
